Laboratory results from IntAct's records for PubMed 21968187.

B1: Amyloid beta precursor protein binding family B member 1 (Homo sapiens), O00213 (parent)
chain: MSVPSSLSQSAINANSHGGPALSLPLPLHAAHNQLLNAKLQATAVGPKDLRSAMGEGGGPEPGPANAKWLKEGQNQLRRAATAHRDQNRNVTLTLAEEASQEPEMAPLGPKGLIHLYSELELSAHNAANRGLRGPGLIISTQEQGPDEGEEKAAGEAEEEEEDDDDEEEEEDLSSPPGLPEPLESVEAPPRPQALTDGPREHSKSASLLFGMRNSAASDEDSSWATLSQGSPSYGSPEDTDSFWNPNAFETDSDLPAGWMRVQDTSGTYYWHIPTGTTQWEPPGRASPSQGSSPQEESQLTWTGFAHGEGFEDGEFWKDEPSDEAPMELGLKEPEEGTLTFPAQSLSPEPLPQEEEKLPPRNTNPGIKCFAVRSLGWVEMTEEELAPGRSSVAVNNCIRQLSYHKNNLHDPMSGGWGEGKDLLLQLEDETLKLVEPQSQALLHAQPIISIRVWGVGRDSGRERDFAYVARDKLTQMLKCHVFRCEAPAKNIATSLHEICSKIMAERRNARCLVNGLSLDHSKLVDVPFQVEFPAPKNELVQKFQVYYLGNVPVAKPVGVDVINGALESVLSSSSREQWTPSHVSVAPATLTILHQQTEAVLGECRVRFLSFLAVGRDVHTFAFIMAAGPASFCCHMFWCEPNAASLSEAVQAACMLRYQKCLDARSQASTSCLPAPPAESVARRVGWTVRRGVQSLWGSLKPKRLGAHTP

Variants of: B1
Details: with lrp1_human LRP1, Q07954
lrp1_human LRP1, Q07954, sequence (Q07954 whole entry): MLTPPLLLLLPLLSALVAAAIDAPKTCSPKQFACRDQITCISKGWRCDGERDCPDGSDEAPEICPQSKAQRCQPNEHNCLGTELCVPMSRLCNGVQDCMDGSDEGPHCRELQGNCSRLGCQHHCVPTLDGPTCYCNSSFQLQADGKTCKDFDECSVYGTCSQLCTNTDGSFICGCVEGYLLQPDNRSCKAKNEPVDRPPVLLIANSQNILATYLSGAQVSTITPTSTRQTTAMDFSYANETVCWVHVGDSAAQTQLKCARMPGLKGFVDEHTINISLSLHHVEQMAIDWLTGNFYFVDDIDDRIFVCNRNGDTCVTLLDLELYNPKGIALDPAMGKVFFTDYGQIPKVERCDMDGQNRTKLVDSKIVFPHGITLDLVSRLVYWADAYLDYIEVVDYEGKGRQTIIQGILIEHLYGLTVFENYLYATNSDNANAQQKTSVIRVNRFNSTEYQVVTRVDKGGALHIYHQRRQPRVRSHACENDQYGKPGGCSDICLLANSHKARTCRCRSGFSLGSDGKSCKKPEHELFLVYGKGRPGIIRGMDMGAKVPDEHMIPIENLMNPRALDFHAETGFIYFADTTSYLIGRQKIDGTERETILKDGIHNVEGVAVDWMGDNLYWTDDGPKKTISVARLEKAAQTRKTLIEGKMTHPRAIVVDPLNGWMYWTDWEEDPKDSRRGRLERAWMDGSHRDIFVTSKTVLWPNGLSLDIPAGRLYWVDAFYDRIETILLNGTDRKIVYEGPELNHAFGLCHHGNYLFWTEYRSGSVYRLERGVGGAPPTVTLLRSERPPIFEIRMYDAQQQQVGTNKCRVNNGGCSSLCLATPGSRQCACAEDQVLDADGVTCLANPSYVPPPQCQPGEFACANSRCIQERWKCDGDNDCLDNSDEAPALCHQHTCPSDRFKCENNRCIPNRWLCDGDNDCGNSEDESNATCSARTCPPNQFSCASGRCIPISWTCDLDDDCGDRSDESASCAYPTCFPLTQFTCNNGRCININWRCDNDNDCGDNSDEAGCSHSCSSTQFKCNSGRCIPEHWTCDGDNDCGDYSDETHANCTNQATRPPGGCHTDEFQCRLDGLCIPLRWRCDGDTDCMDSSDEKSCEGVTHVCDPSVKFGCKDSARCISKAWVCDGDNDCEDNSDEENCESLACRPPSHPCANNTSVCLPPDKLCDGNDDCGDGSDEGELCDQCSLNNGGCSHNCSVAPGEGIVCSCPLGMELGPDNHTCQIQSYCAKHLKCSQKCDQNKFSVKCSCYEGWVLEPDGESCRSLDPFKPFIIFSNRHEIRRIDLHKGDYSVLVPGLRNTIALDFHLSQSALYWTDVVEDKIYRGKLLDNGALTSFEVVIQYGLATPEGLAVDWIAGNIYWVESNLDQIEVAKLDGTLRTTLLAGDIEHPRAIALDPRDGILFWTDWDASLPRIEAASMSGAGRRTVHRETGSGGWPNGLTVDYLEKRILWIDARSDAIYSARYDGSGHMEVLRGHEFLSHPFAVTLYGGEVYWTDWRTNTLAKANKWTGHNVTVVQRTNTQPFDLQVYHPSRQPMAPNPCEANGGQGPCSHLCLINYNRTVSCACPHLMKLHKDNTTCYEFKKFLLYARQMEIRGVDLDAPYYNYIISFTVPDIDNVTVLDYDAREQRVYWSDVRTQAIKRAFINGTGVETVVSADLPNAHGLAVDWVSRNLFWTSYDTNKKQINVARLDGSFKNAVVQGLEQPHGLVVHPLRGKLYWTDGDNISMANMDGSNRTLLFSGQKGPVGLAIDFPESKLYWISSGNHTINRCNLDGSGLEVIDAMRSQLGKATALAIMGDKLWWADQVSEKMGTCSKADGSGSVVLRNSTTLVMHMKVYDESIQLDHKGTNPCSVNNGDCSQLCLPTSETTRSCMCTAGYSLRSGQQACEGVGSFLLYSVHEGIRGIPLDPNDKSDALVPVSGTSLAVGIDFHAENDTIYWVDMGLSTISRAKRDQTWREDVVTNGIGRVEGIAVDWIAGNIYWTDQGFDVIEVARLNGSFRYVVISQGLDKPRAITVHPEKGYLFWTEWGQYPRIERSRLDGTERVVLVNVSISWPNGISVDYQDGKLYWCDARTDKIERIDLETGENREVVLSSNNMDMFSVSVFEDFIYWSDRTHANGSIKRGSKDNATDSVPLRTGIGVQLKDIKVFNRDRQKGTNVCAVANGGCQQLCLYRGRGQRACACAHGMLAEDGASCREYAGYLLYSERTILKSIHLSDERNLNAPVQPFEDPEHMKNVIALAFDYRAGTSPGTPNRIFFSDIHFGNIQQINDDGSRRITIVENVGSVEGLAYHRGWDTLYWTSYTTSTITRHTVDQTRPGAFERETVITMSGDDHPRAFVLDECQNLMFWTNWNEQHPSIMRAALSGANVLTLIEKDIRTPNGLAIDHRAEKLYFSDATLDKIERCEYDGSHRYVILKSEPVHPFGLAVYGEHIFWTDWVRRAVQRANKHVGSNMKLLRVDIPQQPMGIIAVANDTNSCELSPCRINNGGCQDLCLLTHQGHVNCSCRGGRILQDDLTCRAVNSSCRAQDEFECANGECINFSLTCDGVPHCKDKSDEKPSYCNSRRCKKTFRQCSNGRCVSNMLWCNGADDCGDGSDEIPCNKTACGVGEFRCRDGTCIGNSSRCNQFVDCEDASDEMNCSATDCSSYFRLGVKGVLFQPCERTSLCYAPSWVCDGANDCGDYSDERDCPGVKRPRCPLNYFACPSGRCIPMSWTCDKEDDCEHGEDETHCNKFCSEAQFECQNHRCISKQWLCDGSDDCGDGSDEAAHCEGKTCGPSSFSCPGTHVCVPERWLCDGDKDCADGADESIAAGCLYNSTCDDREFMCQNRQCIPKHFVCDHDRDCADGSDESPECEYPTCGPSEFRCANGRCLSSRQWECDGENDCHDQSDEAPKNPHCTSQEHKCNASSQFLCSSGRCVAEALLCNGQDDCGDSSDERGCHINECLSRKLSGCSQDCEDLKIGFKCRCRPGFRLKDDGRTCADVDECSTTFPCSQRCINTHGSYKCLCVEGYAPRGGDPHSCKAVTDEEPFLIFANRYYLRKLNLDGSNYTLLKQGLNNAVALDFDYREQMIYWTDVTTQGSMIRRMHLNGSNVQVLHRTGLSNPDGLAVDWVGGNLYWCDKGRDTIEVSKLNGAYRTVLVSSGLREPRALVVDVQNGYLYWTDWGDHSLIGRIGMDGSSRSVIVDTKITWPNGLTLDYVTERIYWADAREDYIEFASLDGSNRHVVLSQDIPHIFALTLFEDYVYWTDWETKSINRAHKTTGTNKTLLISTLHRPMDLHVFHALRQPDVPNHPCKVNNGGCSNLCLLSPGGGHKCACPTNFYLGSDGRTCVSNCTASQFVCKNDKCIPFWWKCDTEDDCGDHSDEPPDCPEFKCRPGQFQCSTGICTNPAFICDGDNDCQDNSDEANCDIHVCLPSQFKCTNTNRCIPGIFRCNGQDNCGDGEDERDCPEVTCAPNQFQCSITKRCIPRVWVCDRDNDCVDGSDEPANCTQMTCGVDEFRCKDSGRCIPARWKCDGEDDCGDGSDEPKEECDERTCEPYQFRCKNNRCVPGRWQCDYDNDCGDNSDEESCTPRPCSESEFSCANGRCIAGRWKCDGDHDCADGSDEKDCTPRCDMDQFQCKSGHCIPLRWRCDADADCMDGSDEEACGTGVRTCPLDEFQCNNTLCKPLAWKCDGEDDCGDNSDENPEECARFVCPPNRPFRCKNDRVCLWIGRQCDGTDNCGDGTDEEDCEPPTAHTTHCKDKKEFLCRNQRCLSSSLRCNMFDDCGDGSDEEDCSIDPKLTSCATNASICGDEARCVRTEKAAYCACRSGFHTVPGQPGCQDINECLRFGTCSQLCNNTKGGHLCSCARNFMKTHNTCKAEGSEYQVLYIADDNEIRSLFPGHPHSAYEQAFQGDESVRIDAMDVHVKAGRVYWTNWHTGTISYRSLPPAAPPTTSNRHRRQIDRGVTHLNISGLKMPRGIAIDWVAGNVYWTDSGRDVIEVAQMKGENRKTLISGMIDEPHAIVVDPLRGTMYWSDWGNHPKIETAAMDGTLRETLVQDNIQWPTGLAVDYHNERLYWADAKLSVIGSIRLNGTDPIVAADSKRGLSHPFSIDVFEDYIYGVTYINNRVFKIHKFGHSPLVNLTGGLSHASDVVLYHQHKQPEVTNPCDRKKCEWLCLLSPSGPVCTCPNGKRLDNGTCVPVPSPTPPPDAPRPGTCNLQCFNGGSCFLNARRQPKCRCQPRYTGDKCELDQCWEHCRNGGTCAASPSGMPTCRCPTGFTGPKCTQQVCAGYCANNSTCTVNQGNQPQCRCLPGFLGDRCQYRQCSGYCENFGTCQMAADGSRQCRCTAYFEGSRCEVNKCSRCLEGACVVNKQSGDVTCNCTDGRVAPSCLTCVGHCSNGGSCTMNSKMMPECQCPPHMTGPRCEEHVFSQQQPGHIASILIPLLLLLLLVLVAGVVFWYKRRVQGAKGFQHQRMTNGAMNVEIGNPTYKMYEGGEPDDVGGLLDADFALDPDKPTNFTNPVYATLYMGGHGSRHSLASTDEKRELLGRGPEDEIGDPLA

Row | effect of a mutation on the interaction | Variant
1 | disrupting interaction | R470A
2 | disrupting interaction | R451A
